This passage reports EC50 results from paper PMC6957267 (Molecular cancer therapeutics, 2012).

This test addresses Mature human IGF-II (insulin-like growth factor II) (human). Nature of the test: ELISA.

B1: Fab m610.27 (Fab, V domains shown)
VH: QVQLVQSGAEVKKPGASVKVSCKASGYTFTSYYMHWVRQAPGQGLEWMGIINPSGGSTSYAQKFQGRVTMTRDTSTSTVYMELSRLRSDDTAVYYCARDVQWLAYGMDVWGQGTTVTVSS
VL: DIQMTQSPSSLSASVGDRVTITCRASQSISSYLNWYQQKPGRAPDLLINAASSLQSGVPSRFSGSGSGTDFTLTISSLQPEDFATYFCQQSYSLPFTFGGGTKVEIK
In the case of B1, the EC50 stood at 5 nM.

B2: m610 (human mAb to IGF-II), Fab (Fab, V domains shown)
VH: QVQLVQSGAEVKKPGASVKVSCKASGYTFTSYYMHWVRQAPGQGLEWMGIINPSGGSTSYAQKFQGRVTMTRDTSTSTVYMELSRLRSDDTAVYYCARDVQWLAYGMDVWGQGTTVTVSS
VL: not shown
B2 showed an EC50 of 20 nM.
